{"source": "patent US20210292392A1", "about": "(TSB THERAPEUTICS BEIJING, published 2021)", "binders": {"B1": {"name": "P5A-1C8 (antibody, human IgG1, kappa, V domains shown)", "VH": "QVQLVQSGAEVKKPGASVKVSCKASGYTFTSYYMHWVRQAPGQGLEWMGIINPSGGSTSYAQKFQGRVTMTRDTSTSTVYMELSSLRSEDTAVYYCARSARDYYDSSGYYYRAEYFQHWGQGTLVTVSS", "VL": "DIQMTQSPSSLSASVGDRVTITCQASQDISNYLNWYQQKPGKAPKLLIYDASNLETGVPSRFSGSGSGTDFTFTISSLQPEDIATYYCQQYDNLPSITFGQGTRLEIKR"}, "B2": {"name": "P5A-2E1 (antibody, human IgG1, lambda, V domains shown)", "VH": "EVQLVQSGAEVKKPGESLKISCKGSGYSFTSYWIGWVRQMPGKGLEWMGIIYPGDSDTRYSPSFQGQVTISADKSISTAYLQWSSLKASDTAMYYCAQTSVTRNWFDPWGQGTLVTVSS", "VL": "SYVLTQPPSVSVAPGKTARITCGGNNIGSKSVHWYQQKPGQAPVLVIYYDSDRPSGIPERFSGSNSGNTATLTISRVEAGDEADYYCQVWDSSSDHVVFGGGTKLTVLG"}, "B3": {"name": "P1A-1C10 (antibody, V domains shown)", "VH": "QVQLVQSGAEVKNPGSSVKVSCKAGGGTSSFYDINWVRQAPGQGLEWIGKIIPRLDIADYAQKSQGRVTITADKSTSTVYLELSSLKSDDTAVYFCARGRPGSEWAYGPFDLWGQGTLVTVSS", "VL": "DIQMTQSPSTLSASVGDRVTITCRASQSSRAWLAWYQQKPGKAPKLLISKASSLESGVPSRFSGSGYGTEFTLTISSLQPDDSATYYCHQYNSSPFTFGPGTKVQIKR", "notes": "human IgG1, kappa"}, "B4": {"name": "P2C-1A3 (antibody, V domains shown)", "VH": "QVQLVESGGGLVKPGGSLRLSCAASGFTFSDYYMSWIRQAPGKGLEWVSYISSSGSTIYYADSVKGRFTISRDNAKNSLYLQMNSLRAEDTAVYYCARDFSHQQLVPSWGQGTLVTVSS", "VL": "not shown"}, "B5": {"name": "P2C-1A3 (antibody, V domains shown)", "VH": "B4 VH", "VL": "not shown"}, "B6": {"name": "P2C-1C10 (antibody, V domains shown)", "VH": "QVQLVQSGAEVKKPGSSVKVSCKASGGTFSSYAIIWVRQAPGQGLEWMGGIIPIFGTANYAQKFQGRVTITADESTSTAYMELSSLRSEDTAVYYCARVVTGYYFDYWGQGTLVTVSS", "VL": "EIVLTQSPATLSLSPGERATLSCRASQSVSSYLAWYQQKPGQAPRLLIYDASNRATGIPARFSGSGSGTDFTLTISSLEPEDFAVYYCQQRSNWPSFGQGTKLEIKR"}, "B7": {"name": "P5A-1D1 (antibody, V domains shown)", "VH": "EVQLVESGGGLIQPGGSLRLSCAASGLTVSSNYMSWVRQAPGKGLEWVSVIYSGGSTYYADSVKGRFTISRDNSKNTLYLQMNSLRAEDTAVYYCARDLYYYGMDVWGQGTTVTVST", "VL": "DIQLTQSPSFLSASVGDRVTITCRASQGISSYLAWYQQKPGKAPKLLIYAASTLQSGVPSRFSGSGSGTDFTLTISSLQPEDFATYYCQQLNSYPTFGQGTRLEIKR"}}, "key": {"[1]": {"biological_target": "T1, full length spike (S) protein of SARS-CoV-2 (SARS-CoV-2, UniProt P0DTC2 14-1273)", "experiment": "cell-based or functional assay"}, "[2]": {"biological_target": "T1, full length spike (S) protein of …", "experiment": "cell-based or functional assay", "remark": "listed apart in the source"}, "[3]": {"biological_target": "recombinant RBD of the spike protein of SARS-CoV-2 (residues Arg319-Phe541) (SARS-CoV-2, UniProt P0DTC2 319-541)", "experiment": "SPR, RBD on CM5 chip"}, "[4]": {"biological_target": "spike protein on live SARS-CoV-2 (SARS-CoV-2, UniProt P0DTC2 14-1273)", "experiment": "cell-based or functional assay"}, "[5]": {"biological_target": "full length spike (S) protein of SARS-CoV-2 on pseudovirus (SARS-CoV-2, UniProt P0DTC2 14-1273)", "experiment": "cell-based or functional assay"}, "[6]": {"biological_target": "spike (S) protein of live SARS-CoV-2 (SARS-CoV-2, UniProt P0DTC2 14-1273)", "experiment": "cell-based or functional assay"}, "[7]": {"biological_target": "spike protein of live SARS-CoV-2 (SARS-CoV-2, UniProt P0DTC2 14-1273)", "experiment": "cell-based or functional assay"}}, "data": [{"binder": "B1", "values": [{"measurement": "IC50, pseudovirus neutralization", "setting": "[1]", "result": 0.434, "unit": "µg/mL"}]}, {"binder": "B2", "values": [{"measurement": "IC50, pseudovirus neutralization", "setting": "[1]", "result": 6.97, "unit": "µg/mL"}]}, {"binder": "B3", "values": [{"measurement": "IC50, Pesudovirus neutralization", "setting": "[2]", "result": 21.5, "unit": "µg/mL"}, {"measurement": "Kd", "setting": "[3]", "result": 8.48, "unit": "nM"}]}, {"binder": "B4", "values": [{"measurement": "IC50, live SARS-CoV-2 focus reduction neutralization test (FRNT)", "setting": "[4]", "result": 0.28, "unit": "µg/mL"}]}, {"binder": "B5", "values": [{"measurement": "Pseudovirus IC50", "setting": "[5]", "result": 0.62, "unit": "µg/mL"}, {"measurement": "Pseudovirus IC80", "setting": "[5]", "result": 5.94, "unit": "µg/mL"}, {"measurement": "Live virus IC50", "setting": "[6]", "result": 0.283, "unit": "µg/mL"}, {"measurement": "Live virus IC80", "setting": "[6]", "result": 1.46, "unit": "µg/mL"}]}, {"binder": "B6", "values": [{"measurement": "Pseudovirus IC50", "setting": "[5]", "result": 2.62, "unit": "µg/mL"}, {"measurement": "Pseudovirus IC80", "setting": "[5]", "result": 4.64, "unit": "µg/mL"}, {"measurement": "Live virus IC50", "setting": "[6]", "result": 11.1, "unit": "µg/mL"}, {"measurement": "Live virus IC80", "setting": "[6]", "result": "> 50", "unit": "µg/mL"}]}, {"binder": "B7", "values": [{"measurement": "Live virus IC50", "setting": "[7]", "result": 0.0189, "unit": "µg/mL"}]}]}
